Patent US20140220017A1 (published 2014)

Legend:
human IgG Fab [1] = biological target: human IgG Fab (human); experiment: QCM; pH 7.4
human IgG [2] = biological target: human IgG (human); experiment: QCM; pH 7.4
human IgG Fc [3] = biological target: human IgG Fc (human); experiment: QCM; pH 7.4
mouse IgG [4] = biological target: mouse IgG (mouse); experiment: QCM; pH 7.4
mouse IgG Fc = mouse IgG Fc (mouse); experiment: QCM; pH 7.4
mouse IgG Fab [5] = biological target: mouse IgG Fab (mouse); experiment: QCM; pH 7.4
human IgG Fab [6] = biological target: human IgG Fab (human); experiment: QCM; pH 6
human IgG [7] = biological target: human IgG (human); experiment: QCM; pH 6
human IgG Fc [8] = biological target: human IgG Fc (human); experiment: QCM; pH 6
mouse IgG [9] = biological target: mouse IgG (mouse); experiment: QCM; pH 6
mouse IgG Fab [10] = biological target: mouse IgG Fab (mouse); experiment: QCM; pH 6

Kd (human IgG Fab [1]): 190 nM
Kd (human IgG [2]): 6 nM
Kd (human IgG Fc [3]): 10 nM
Kd (mouse IgG [4]): 58 nM
Kd (mouse IgG Fc): 24 nM
Kd (mouse IgG Fab [5]): 190 nM
Kd (human IgG Fab [6]): 150 nM
Kd (human IgG [7]): 5 nM
Kd (human IgG Fc [8]): 3.6 nM
Kd (mouse IgG [9]): 46 nM
Kd (mouse IgG Fab [10]): 190 nM
B1: SpGC3 (other)
chain: DAAQPAMAQVKLQQSGAELVRSGTSVKLSCTASGFNIKDSYMHWLRQGPEQGLEWIGWIDPENGDTEYAPKFQGKATFTTDTSSNTAYLQLSSLTSEDTAVYYCNEGTPTGPYYFDYWGQGTTVTVSSGGGGSDIQMTQSPSSLSASVGDRVTITCRASQDIRNYLNWYQQKPGKAPKLLIYYTSRLESGVPSRFSGSGSGTDYTLTISSLQPEDFATYYCQQGNTLPWTFGQGTKVEIKRGGGGSGGRASGGGGSEVQLVESGGGLVQPGGSLRLSCAASGYSFTGYTMNWVRQAPGKGLEWVALINPYKGVSTYNQKFKDRFTISVDKSKNTAYLQMNSLRAEDTAVYYCARSGYYGDSDWYFDVWGQGTLVTVSSGGGGSDIELTQSPAIMSASPGEKVTITCSASSSVSYMHWFQQKPGTSPKLWIYSTSNLASGVPARFSGSGSGTSYSLTISRMEAEDAATYYCQQRSSYPLTFGAGTKLELKRAAAGGSGGTTYKLVINGKTLKGETTTKAVDAETAEKAFKQYANDNGVDGVWTYDDATKTFTVTEGGSHHHHHH
